Values of other authors as cited in article PMC4965143.
Where two headings read alike, the source gives them in different places.

Key:
[1] = biological target: PGC-1α coactivator peptide (Homo sapiens) (UniProt Q9UBK2)
[2] = biological target: PGC-1α coactivator peptide (Homo sapiens) (UniProt Q9UBK2); remark: listed apart in the source

Chain of UniProt Q9UBK2 (Q9UBK2 whole entry): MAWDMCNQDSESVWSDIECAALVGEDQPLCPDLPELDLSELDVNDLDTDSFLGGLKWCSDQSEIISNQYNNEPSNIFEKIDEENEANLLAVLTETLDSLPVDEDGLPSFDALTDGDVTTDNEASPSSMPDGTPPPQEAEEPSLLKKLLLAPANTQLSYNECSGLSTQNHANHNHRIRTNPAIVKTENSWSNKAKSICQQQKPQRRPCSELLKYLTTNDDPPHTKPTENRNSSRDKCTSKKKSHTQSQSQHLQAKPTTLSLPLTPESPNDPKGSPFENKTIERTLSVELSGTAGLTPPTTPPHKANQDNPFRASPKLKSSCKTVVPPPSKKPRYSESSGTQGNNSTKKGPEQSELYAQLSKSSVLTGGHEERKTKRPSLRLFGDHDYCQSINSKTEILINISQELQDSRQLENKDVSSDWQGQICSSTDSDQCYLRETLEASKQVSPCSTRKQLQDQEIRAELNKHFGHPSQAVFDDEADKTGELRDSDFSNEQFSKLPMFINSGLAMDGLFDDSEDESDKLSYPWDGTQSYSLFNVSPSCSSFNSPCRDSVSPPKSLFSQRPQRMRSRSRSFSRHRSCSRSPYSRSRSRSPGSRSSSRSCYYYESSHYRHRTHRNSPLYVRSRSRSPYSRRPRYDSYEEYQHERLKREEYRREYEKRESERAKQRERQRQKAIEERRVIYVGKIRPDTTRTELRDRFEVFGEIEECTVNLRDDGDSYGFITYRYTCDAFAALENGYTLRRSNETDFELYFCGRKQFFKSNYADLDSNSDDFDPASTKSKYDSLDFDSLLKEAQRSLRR

- Kd [1]: 8.5 µM
- Kd [2]: 6 µM
Substance: SF-1 LBD (from UniProt Q13285)
